Measured values taken from paper PMC12245079, “FUS Selectively Facilitates circRNAs Packing into Small Extracellular Vesicles within Hypoxia Neuron”.

Columns and labels:
Experiment in all cases: EMSA; 100 nM probe; 10 mM Tris-HCl pH 8.0, 10 mM NaCl, 25 mM KCl, 1 mM MgCl2, 1 mM DTT, 1 mg/mL tRNA; room temperature 30 min; 4% native acrylamide gel, 1x TBE
FUS polypeptide-1 = FUS polypeptide-1 (UniProt P35637 1-526); conditions: protein: recombinant; tags: GST fusion (pGEX-4T-1), TEV cleavage described; label: Cy3 (3')
Chain of FUS polypeptide-1 (P35637 whole entry, the tested form may be a part): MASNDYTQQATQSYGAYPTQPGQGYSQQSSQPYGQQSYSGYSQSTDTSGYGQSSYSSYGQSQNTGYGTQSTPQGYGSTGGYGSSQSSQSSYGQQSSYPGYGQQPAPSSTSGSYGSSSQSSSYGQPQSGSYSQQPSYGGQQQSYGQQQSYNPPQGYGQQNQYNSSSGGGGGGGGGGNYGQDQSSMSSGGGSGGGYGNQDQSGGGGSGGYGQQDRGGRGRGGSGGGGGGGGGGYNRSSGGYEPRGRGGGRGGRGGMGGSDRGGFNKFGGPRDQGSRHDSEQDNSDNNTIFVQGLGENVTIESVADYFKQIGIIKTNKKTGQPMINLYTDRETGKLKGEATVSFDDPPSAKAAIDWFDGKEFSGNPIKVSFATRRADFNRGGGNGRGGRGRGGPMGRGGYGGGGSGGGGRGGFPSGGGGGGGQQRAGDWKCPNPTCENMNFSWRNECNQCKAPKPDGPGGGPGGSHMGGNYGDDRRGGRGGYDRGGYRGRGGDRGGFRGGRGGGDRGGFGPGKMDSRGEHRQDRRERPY

FUS polypeptide-4 = FUS polypeptide-4 (UniProt P35637 280-375); conditions: protein: recombinant; tags: GST fusion (pGEX-4T-1), TEV cleavage described; label: Cy3 (3')
Chain of FUS polypeptide-4 (P35637 280-375): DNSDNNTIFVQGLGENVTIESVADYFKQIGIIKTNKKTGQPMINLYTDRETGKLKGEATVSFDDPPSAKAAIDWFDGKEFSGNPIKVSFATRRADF

FUS polypeptide-2 = FUS polypeptide-2 (UniProt P35637 50-400); conditions: protein: commercial; tags: GST fusion (pGEX-4T-1) described; label: Cy3 (3')
Chain of FUS polypeptide-2 (P35637 50-400): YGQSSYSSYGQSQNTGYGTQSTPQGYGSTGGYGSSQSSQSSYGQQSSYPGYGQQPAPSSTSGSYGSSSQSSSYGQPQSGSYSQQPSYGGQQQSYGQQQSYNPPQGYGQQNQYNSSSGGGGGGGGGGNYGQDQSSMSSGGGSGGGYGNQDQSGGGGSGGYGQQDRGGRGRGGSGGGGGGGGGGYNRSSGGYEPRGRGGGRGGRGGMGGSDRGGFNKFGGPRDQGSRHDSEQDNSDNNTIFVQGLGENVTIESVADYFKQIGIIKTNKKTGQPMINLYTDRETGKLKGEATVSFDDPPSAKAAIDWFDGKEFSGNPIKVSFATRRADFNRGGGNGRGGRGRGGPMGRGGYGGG

FUS polypeptide-3 = FUS polypeptide-3 (UniProt P35637 1-380); conditions: protein: recombinant; tags: GST fusion (pGEX-4T-1), TEV cleavage described; label: Cy3 (3')
Chain of FUS polypeptide-3 (P35637 1-380): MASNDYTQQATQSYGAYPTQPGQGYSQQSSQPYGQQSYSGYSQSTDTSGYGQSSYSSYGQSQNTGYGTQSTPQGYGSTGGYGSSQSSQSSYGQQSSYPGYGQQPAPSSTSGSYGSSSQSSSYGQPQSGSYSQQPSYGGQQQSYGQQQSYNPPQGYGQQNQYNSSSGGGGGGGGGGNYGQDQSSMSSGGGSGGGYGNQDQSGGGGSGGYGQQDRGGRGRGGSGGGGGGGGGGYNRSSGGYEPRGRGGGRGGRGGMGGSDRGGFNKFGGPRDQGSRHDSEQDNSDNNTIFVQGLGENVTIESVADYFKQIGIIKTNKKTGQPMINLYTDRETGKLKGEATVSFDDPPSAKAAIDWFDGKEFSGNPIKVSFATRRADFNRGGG

## UUGUAUUUUGAGCUAGUUUGGUGAC (ssRNA) [GGUG oligo]
FUS polypeptide-1
  binding result: binds
FUS polypeptide-4
  binding result: no binding
FUS polypeptide-2
  binding result: binds
FUS polypeptide-3
  binding result: binds
